Reference: patent US20220041709A1 (MITSUBISHI TANABE PHARMA, published 2022)

Legend:
Human IL-33 [1] = target: T1, Human IL-33 (human, UniProt O95760 112-270, limits assumed); assay: ELISA on plate-coated human IL-33, HRP anti-human IgG detection; 10 mg/mL formulation, 2 to 8 C, T0
T1 construct: also called NF-HEV
T1 sequence (looked up): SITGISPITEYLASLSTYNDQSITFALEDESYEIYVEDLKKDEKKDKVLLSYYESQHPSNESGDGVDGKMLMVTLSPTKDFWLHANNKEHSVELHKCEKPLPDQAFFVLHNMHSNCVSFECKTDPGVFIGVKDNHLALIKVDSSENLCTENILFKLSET
Description: (§1) Compositions of 10 mg/mL of each human anti-IL-33 monoclonal antibody (A10-1C04, A23-1A05, A25-2C02, A25-3H04 or A26-1F02) were prepared with 10 mM histidine/pH 6/0.02% (w/v) polysorbate 80/3.6% (w/v) sorbitol, and then each filled into a glass vial and sealed with a halogenated butyl rubber stopper, and stored for 1, 2 and 3 years at a temperature of 2 to 8° C. as a long-term stability test. The presence or absence of aggregation was confirmed by visual examination for 5 seconds each under a 2000 to 3750 Lux fluorescent lamp, against white and black board backgrounds. The binding activity was evaluated by the following method. Human IL-33 was added to a 96-well plate and allowed to form a solid phase overnight. BSA was used for blocking, and then the sample solution was added to each well, reacted with HRP-labeled anti-human IgG antibody and colored with TMB. The absorbance at 450 nm and 650 nm was then measured with a plate reader (Molecular Devices Corp.) to determine the EC50 value. The EC50 value of the standard solution was also determined in the same manner, and the ratio was calculated.

Human IL-33 [2] = target: T1, Human IL-33; assay: ELISA on plate-coated human IL-33, HRP anti-human IgG detection; 150 mg/mL formulation stored 6 months at 2 to 8 C
Description: as §1, with “monoclonal” for “Compositions of 10 mg/mL of each human anti-IL-33 monoclonal”, “and stored for 1, 2 and 3 years at a temperature of 2 to” left out
(§2) Compositions of 150 mg/mL of each human anti-IL-33 monoclonal antibody (A10-1C04, A23-1A05, A25-2C02, A25-3H04 or A26-1F02) were prepared with 10 mM histidine/pH 6/0.02% (w/v) polysorbate 80/4.0% (w/v) sorbitol, and then each was filled into a glass vial and sealed with a halogenated butyl rubber stopper, and stored for 3 and 6 months at a temperature of 2 to 8° C. as a long-term stability test. […]

Human IL-33 [3] = target: T1, Human IL-33; assay: ELISA on plate-coated human IL-33, HRP anti-human IgG detection; 10 mg/mL formulation stored 3 years at 2 to 8 C
Description: as §1

Human IL-33 [4] = target: T1, Human IL-33; assay: ELISA on plate-coated human IL-33, HRP anti-human IgG detection; 10 mg/mL formulation stored 2 years at 2 to 8 C
Description: as §1

Human IL-33 [5] = target: T1, Human IL-33; assay: ELISA on plate-coated human IL-33, HRP anti-human IgG detection; 10 mg/mL formulation stored 1 year at 2 to 8 C
Description: as §1

Human IL-33 [6] = target: T1, Human IL-33; assay: ELISA on plate-coated human IL-33, HRP anti-human IgG detection; 150 mg/mL formulation stored 3 months at 2 to 8 C
Description: as §1, with “monoclonal” for “Compositions of 10 mg/mL of each human anti-IL-33 monoclonal”, “and stored for 1, 2 and 3 years at a temperature of 2 to” left out
as §2

Human IL-33 [7] = target: T1, Human IL-33; assay: ELISA on plate-coated human IL-33, HRP anti-human IgG detection; 150 mg/mL formulation, 2 to 8 C, T0
Description: The presence or absence of aggregation was confirmed by visual examination for 5 seconds each under a 2000 to 3750 Lux fluorescent lamp, against white and black board backgrounds. The binding activity was evaluated by the following method. Human IL-33 was added to a 96-well plate and allowed to form a solid phase overnight. BSA was used for blocking, and then the sample solution was added to each well, reacted with HRP-labeled anti-human IgG antibody and colored with TMB. The absorbance at 450 nm and 650 nm was then measured with a plate reader (Molecular Devices Corp.) to determine the EC50 value. The EC50 value of the standard solution was also determined in the same manner, and the ratio was calculated.
Compositions of 150 mg/mL of each human anti-IL-33 monoclonal antibody (A10-1C04, A23-1A05, A25-2C02, A25-3H04 or A26-1F02) were prepared with 10 mM histidine/pH 6/0.02% (w/v) polysorbate 80/4.0% (w/v) sorbitol, and then each was filled into a glass vial and sealed with a halogenated butyl rubber stopper, and stored for 3 and 6 months at a temperature of 2 to 8° C. as a long-term stability test. The evaluation was conducted by the same method as Example 14.

- Binding activity (ratio of EC50 to that of the standard solution) (Human IL-33 [1]): 100%
- Binding activity (ratio of EC50 to that of the standard solution) (Human IL-33 [2]): 100%
- Binding activity (ratio of EC50 to that of the standard solution) (Human IL-33 [3]): 101%
- Binding activity (ratio of EC50 to that of the standard solution) (Human IL-33 [4]): 101%
- Binding activity (ratio of EC50 to that of the standard solution) (Human IL-33 [5]): 110%
- Binding activity (ratio of EC50 to that of the standard solution) (Human IL-33 [6]): 110%
- Binding activity (ratio of EC50 to that of the standard solution) (Human IL-33 [7]): 115%
B1: human anti-IL-33 monoclonal antibody A10-1C04 (antibody, human IgG1, lambda, V domains shown)
VH: EVQLLESGGGLVQPGGSLRLSCAASGFTFSDYYMNWVRQAPGKGLEWVSSISRYSSYIYYADSVKGRFTISRDNSKNTLYLQMNSLRAEDTAVYYCARDIGGMDVWGQGTLVTVSS
VL: QSVLTQPPSASGTPGQRVTISCTGSSSNIGAVYDVHWYQQLPGTAPKLLIYRNNQRPSGVPDRFSGSKSGTSASLAISGLRSEDEADYYCQTYDSSRWVFGGGTKLTVLG
notes: Detected with anti-human IgG antibody in the ELISA
